Assays:
[1] = target: LiRecT (RecT/Redβ family recombinase from the A118 prophage of Listeria innocua) (Listeria innocua); test: native MS; free LiRecT without DNA at 30 µM, 100 mM ammonium acetate pH 7
[2] = target: T1, LiRecT WT (Listeria innocua CLIP 11262, UniProt Q92FL9 1-271); test: native MS; 17-18 LiRecT:1:1; EMSA: PBS pH 7.4 (or KH2PO4/10 mM MgCl2 pH 6.0), 3.6 or 5 uM protein, 25 uM nt DNA, 37 C 15 min per strand, 0.8% agarose 1x TBE; cryo-EM: 20 mM KH2PO4 (Results: 10 mM), 10 mM MgCl2 pH 6.0, 37 C; native MS: 100 mM ammonium acetate pH 7, 37 C; details: protein: recombinant; tags: N-terminal 6His, thrombin-cleaved in main prep; chain copies: 10; blunt
T1 sequence: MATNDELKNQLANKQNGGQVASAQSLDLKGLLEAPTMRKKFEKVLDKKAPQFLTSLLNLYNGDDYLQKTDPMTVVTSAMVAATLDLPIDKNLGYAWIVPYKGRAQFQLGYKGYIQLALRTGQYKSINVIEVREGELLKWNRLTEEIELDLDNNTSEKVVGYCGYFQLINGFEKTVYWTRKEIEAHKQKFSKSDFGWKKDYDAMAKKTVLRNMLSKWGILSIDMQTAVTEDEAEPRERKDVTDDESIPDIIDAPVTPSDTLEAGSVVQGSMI

[3] = target: T1, LiRecT WT; test: cryo-EM; 10 mM MgCl2, pH 6.0; EMSA: PBS pH 7.4 (or KH2PO4/10 mM MgCl2 pH 6.0), 3.6 or 5 uM protein, 25 uM nt DNA, 37 C 15 min per strand, 0.8% agarose 1x TBE; cryo-EM: 20 mM KH2PO4 (Results: 10 mM), 10 mM MgCl2 pH 6.0, 37 C; native MS: 100 mM ammonium acetate pH 7, 37 C; details: protein: recombinant; tags: N-terminal 6His, thrombin-cleaved in main prep; chain copies: 10; single strand
[4] = target: T1, LiRecT WT; test: native MS; 17 LiRecT:2 DNA among species; EMSA: PBS pH 7.4 (or KH2PO4/10 mM MgCl2 pH 6.0), 3.6 or 5 uM protein, 25 uM nt DNA, 37 C 15 min per strand, 0.8% agarose 1x TBE; cryo-EM: 20 mM KH2PO4 (Results: 10 mM), 10 mM MgCl2 pH 6.0, 37 C; native MS: 100 mM ammonium acetate pH 7, 37 C; details: protein: recombinant; tags: N-terminal 6His, thrombin-cleaved in main prep; chain copies: 10; single strand
[5] = target: T1, LiRecT WT; test: native MS; 17 LiRecT:1:1; EMSA: PBS pH 7.4 (or KH2PO4/10 mM MgCl2 pH 6.0), 3.6 or 5 uM protein, 25 uM nt DNA, 37 C 15 min per strand, 0.8% agarose 1x TBE; cryo-EM: 20 mM KH2PO4 (Results: 10 mM), 10 mM MgCl2 pH 6.0, 37 C; native MS: 100 mM ammonium acetate pH 7, 37 C; details: protein: recombinant; tags: N-terminal 6His, thrombin-cleaved in main prep; chain copies: 10; blunt
[6] = target: T1, LiRecT WT; test: native MS; 16 LiRecT:1 DNA among species; EMSA: PBS pH 7.4 (or KH2PO4/10 mM MgCl2 pH 6.0), 3.6 or 5 uM protein, 25 uM nt DNA, 37 C 15 min per strand, 0.8% agarose 1x TBE; cryo-EM: 20 mM KH2PO4 (Results: 10 mM), 10 mM MgCl2 pH 6.0, 37 C; native MS: 100 mM ammonium acetate pH 7, 37 C; details: protein: recombinant; tags: N-terminal 6His, thrombin-cleaved in main prep; chain copies: 10; single strand
[7] = target: T1, LiRecT WT; test: native MS; 1-2 fewer subunits than 83-mer complex; EMSA: PBS pH 7.4 (or KH2PO4/10 mM MgCl2 pH 6.0), 3.6 or 5 uM protein, 25 uM nt DNA, 37 C 15 min per strand, 0.8% agarose 1x TBE; cryo-EM: 20 mM KH2PO4 (Results: 10 mM), 10 mM MgCl2 pH 6.0, 37 C; native MS: 100 mM ammonium acetate pH 7, 37 C; details: protein: recombinant; tags: N-terminal 6His, thrombin-cleaved in main prep; chain copies: 10; blunt
[8] = target: T1, LiRecT WT; test: EMSA; EMSA: PBS pH 7.4 (or KH2PO4/10 mM MgCl2 pH 6.0), 3.6 or 5 uM protein, 25 uM nt DNA, 37 C 15 min per strand, 0.8% agarose 1x TBE; cryo-EM: 20 mM KH2PO4 (Results: 10 mM), 10 mM MgCl2 pH 6.0, 37 C; native MS: 100 mM ammonium acetate pH 7, 37 C; details: protein: recombinant, tags: N-terminal 6His, thrombin-cleaved in main prep, chain copies: 10, single strand
[9] = target: T1, LiRecT WT; test: native MS; 15 LiRecT:2 DNA among species; EMSA: PBS pH 7.4 (or KH2PO4/10 mM MgCl2 pH 6.0), 3.6 or 5 uM protein, 25 uM nt DNA, 37 C 15 min per strand, 0.8% agarose 1x TBE; cryo-EM: 20 mM KH2PO4 (Results: 10 mM), 10 mM MgCl2 pH 6.0, 37 C; native MS: 100 mM ammonium acetate pH 7, 37 C; details: protein: recombinant; tags: N-terminal 6His, thrombin-cleaved in main prep; chain copies: 10; single strand
[10] = target: T2, λ-Redβ (bacteriophage lambda, UniProt P03698 1-261); test: EMSA; sequential addition; EMSA: PBS pH 7.4 (or KH2PO4/10 mM MgCl2 pH 6.0), 3.6 or 5 uM protein, 25 uM nt DNA, 37 C 15 min per strand, 0.8% agarose 1x TBE; cryo-EM: 20 mM KH2PO4 (Results: 10 mM), 10 mM MgCl2 pH 6.0, 37 C; native MS: 100 mM ammonium acetate pH 7, 37 C; details: protein: recombinant; label: 5'-Cy3;5'-Cy5; 49 bp, 1 nt 5' overhang at each end
T2 sequence: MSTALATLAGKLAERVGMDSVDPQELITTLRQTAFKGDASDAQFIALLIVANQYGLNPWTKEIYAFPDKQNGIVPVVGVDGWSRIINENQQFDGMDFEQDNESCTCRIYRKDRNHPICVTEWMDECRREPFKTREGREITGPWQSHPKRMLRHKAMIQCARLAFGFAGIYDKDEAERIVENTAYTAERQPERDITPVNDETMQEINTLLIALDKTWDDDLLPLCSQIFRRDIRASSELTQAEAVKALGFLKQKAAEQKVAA

[11] = target: T1, LiRecT WT; test: as above; details: protein: recombinant; tags: N-terminal 6His, thrombin-cleaved in main prep; chain copies: 10; label: 5'-Cy3;5'-Cy5; 49 bp, 1 nt 5' overhang at each end

Question: Which stoichiometry N [1] does the source give for “LiRecT (RecT/Redβ family recombinase from the A118 prophage of Listeria innocua) (natural protein)” here?
Answer: < 9

B1: 83-/83+ annealed duplex (sequential) (dsDNA)
DNA 1: TTGCATATTTAAAACATGTTGAGCTACAGCACCAGATTCAGCAATTAAGCTCTAAGCCATCCGCAAAAATGACCTCTTATCAA
DNA 2: TTGATAAGAGGTCATTTTTGCGGATGGCTTAGAGCTTAATTGCTGAATCTGGTGCTGTAGCTCAACATGTTTTAAATATGCAA
Question: Does B1 bind [2]?
Answer: binds

B2: 83- (ssDNA)
DNA: B1 DNA 1
Question: Does B2 bind [3]?
Answer: binds

B3: 83+ (ssDNA)
DNA: B1 DNA 2
Question: Does B3 bind [4]?
Answer: binds

B4: 80-/80+ annealed duplex (sequential) (dsDNA)
DNA 1: CATATTTAAAACATGTTGAGCTACAGCACCAGATTCAGCAATTAAGCTCTAAGCCATCCGCAAAAATGACCTCTTATCAA
DNA 2: TTGATAAGAGGTCATTTTTGCGGATGGCTTAGAGCTTAATTGCTGAATCTGGTGCTGTAGCTCAACATGTTTTAAATATG
Question: Does B4 bind [5]?
Answer: binds

B5: 80- (ssDNA)
DNA: B4 DNA 1
Question: Does B5 bind [4]?
Answer: binds

B6: 80+ (ssDNA)
DNA: B4 DNA 2
Question: Does B6 bind [4]?
Answer: binds

B7: 75- (ssDNA)
DNA: TTAAAACATGTTGAGCTACAGCACCAGATTCAGCAATTAAGCTCTAAGCCATCCGCAAAAATGACCTCTTATCAA
Question: Does B7 bind [6]?
Answer: binds

B8: 75-/75+ annealed duplex (sequential) (dsDNA)
DNA 1: B7 DNA
DNA 2: TTGATAAGAGGTCATTTTTGCGGATGGCTTAGAGCTTAATTGCTGAATCTGGTGCTGTAGCTCAACATGTTTTAA
Question: Does B8 bind [7]?
Answer: binds

Question: Does GCGGATGGCTTAGAGCAGAATCGCCCTGCATAGCTCGATTTTTGCGGATG (ssDNA) [Cy3-50mer] bind ([8]; label: 5'-Cy3)?
Answer: binds

B9: 75+ (ssDNA)
DNA: B8 DNA 2
Question: Does B9 bind [9]?
Answer: binds

Question: Does CCATCCGCAAAAATCGAGCTATGCAGGGCGATTCTGCTCTAAGCCATCCG (ssDNA) [Cy5-50mer] bind ([8]; label: 5'-Cy5)?
Answer: binds

B10: 50-mer duplex intermediate (sequential addition) (dsDNA)
DNA 1: GCGGATGGCTTAGAGCAGAATCGCCCTGCATAGCTCGATTTTTGCGGATG
DNA 2: CCATCCGCAAAAATCGAGCTATGCAGGGCGATTCTGCTCTAAGCCATCCG
Question: Does B10 bind [10]?
Answer: binds

Question: Does B10 bind [11]?
Answer: binds

Source: PMC9772228, “Structure of a RecT/Redβ family recombinase in complex with a duplex intermediate of DNA annealing”
